{"source": "the nanobody polyreactivity screen of Harvey et al. (2022)"}
{"assay": "yeast display, Sf9 membrane polyspecificity reagent, FACS + sequencing; frameworks hold sequencing errors", "outline": "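A synthetic nanobody library was expressed on Saccharomyces cerevisiae BJ5465 by galactose induction for 36–48 hours. The library was stained for 1 hour at 4 °C with 10% biotinylated, detergent-solubilized Sf9 membrane reagent and enriched with streptavidin microbeads before FACS. Low and high (top ~1%) gates were set on anti-HA fluorescence for expression and streptavidin fluorescence for reagent binding, and each polyreactivity label reflects the gate of origin.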"}
{"sequence": "QVQHVESGGGLVQAGGSLRLICAASGRIFLRNAMGWYRQAPGKERELVATITSRGGSTYYADAVKGRFTISRDNAKNTVYLQMNRLKPEDTAVYNCAAVPRRYRGFGYVYGGFYYWGQGTQVTVSS", "polyreactivity (PSR sort gate)": "low polyreactivity"}
{"sequence": "QVQHVESGGGLVQAGGSLRLICAASGSTFYYNAMGWYRQAPGKERELVAAISFSGGSTYYADSVKGRFTISRDNAKNTVYLQMNSLKPDDTAVYYCNRVYYAFYVYYYSTYDYWGQGTQVTLSS", "polyreactivity (PSR sort gate)": "low polyreactivity"}
{"sequence": "QVQHVESGGGLVQAGGSLRLSCAASASTLYRNAMGWYRQAPGKEREFVAAISWSGGSTYYADSVMGRFTISRDNAKNTVYLQMNSLKPEDTAVYYCNADTDRYWPYEYDYWGHGTQVTVSS", "polyreactivity (PSR sort gate)": "low polyreactivity"}
{"sequence": "QVQHVESGGGLVQAGGSLRLSCAASGFIFASYTMGWYRQAPGKERELVATISRGGSTYYADSVKGRFTISRDNAKNTVYLQMNSLKPEATAVYYCATDVGKRAGYYGGVYPDFDYWGQGTQVTVSS", "polyreactivity (PSR sort gate)": "low polyreactivity"}
{"sequence": "QVQHVESGGGLVQAGGSLRLSCAASGFIFPVNAMGWYRQAPGKERELVAAITYSTGSTYYADSVKGRFTISRDNAKNTVYLQMNSLKPEDTAVYSCAADVPPGEVVTNDYWGQGTQVTVSS", "polyreactivity (PSR sort gate)": "low polyreactivity"}
{"sequence": "QVQHVESGGGLVQAGGSLRLSCAASGFISYFYAMGWYRQAPGKERELVPVNTQSGGSTYFADSVKGRFTISRDNAKNTVYLQMNSLKPEDTAVYYCNADTVRDYPFFSVSYYYWGQGTQVTVSS", "polyreactivity (PSR sort gate)": "low polyreactivity"}
{"sequence": "QVQHVESGGGLVQAGGSLRLSCAASGFTFARYAMGWYRHAPGKERELVASISSSGDRTNYADSVKGRFTISRDNAKITVYLQMYSLKPEDTAVYYCNADFGYGWYLRYDYWGQGTQVTVSS", "polyreactivity (PSR sort gate)": "high polyreactivity"}
{"sequence": "QVQHVESGGGLVQAGGSLRLSCAASGFTFTRYAMGWYRQAPGKERELVAAISRGGTTYADSVKGRFTISRDNAKNTVYLQMNSLKPEDTAVYYCNRLRYGYPQEFGYWGQGTQVTVSS", "polyreactivity (PSR sort gate)": "high polyreactivity"}
{"sequence": "QVQHVESGGGLVQAGGSLRLSCAASGFTFVYYAMGWYRQAPGKERELVAAISRSGSRTYYADSVKGRFTISRDNAKKTVYLQMNSLKPEDTAVYYCAVAGYSPYLYRYGYWVQGTQVTVSS", "polyreactivity (PSR sort gate)": "high polyreactivity"}
{"sequence": "QVQHVESGGGLVQAGGSLRLSCAASGFTFYIYVMGWYRQAPGKERELVAAITWSGGRTYYADSVKGRFTISRDNAKNTVYLQMNSLKPEDTAVYYCAASYPGLSYHKYEYWGQGTQVTVSS", "polyreactivity (PSR sort gate)": "high polyreactivity"}
{"sequence": "QVQHVESGGGLVQAGGSLRLSCAASGGIFYPNAMGWYRQAPGKERELVAAISSGGGSTYYADSVKGRFTISRDNAKNTVYLQMNSLKPEDTSGYYCAASADRLKSDVESDYWGQGTLVTVSS", "polyreactivity (PSR sort gate)": "low polyreactivity"}
{"sequence": "QVQHVESGGGLVQAGGSLRLSCAASGIIFPRNAMGRYRQAPGKEREFVAAITLSGGRTYYADSVKGRFTISRDNAKNSVYLQMNSLKPEDTAVYYCAAYGFGPYKGVDYWGQGTQVTVSS", "polyreactivity (PSR sort gate)": "high polyreactivity"}
{"sequence": "QVQHVESGGGLVQAGGSLRLSCAASGIIFSEYAMGWYRLAPGKERELVAVISRSGGRTYYADSVKGRFTISRDNAKNTVYFQMNSLKPEDTAVYYCAVVHKTFTGDYWGQGTQVTVSS", "polyreactivity (PSR sort gate)": "high polyreactivity"}
{"sequence": "QVQHVESGGGLVQAGGSLRLSCAASGIIFYHNAMGWYRQAPVKERELVASITEIGGSTYYADSVKGLFTISRDNAKSTVYLQMNRLKPEDTAVYYCAAGTLTSFSRYDYWGQGTQVTVSS", "polyreactivity (PSR sort gate)": "low polyreactivity"}
{"sequence": "QVQHVESGGGLVQAGGSLRLSCAASGIIFYWYAMGWYRQAPGKERELVAAISRTGGSTYYADSVKGRFTISRDNAKNTVYLQMNSLKPEDTAVYYCAADDGGYWSAGHEYWGQGTQVTVSS", "polyreactivity (PSR sort gate)": "high polyreactivity"}
{"sequence": "QVQHVESGGGLVQAGGSLRLSCAASGIISYKNVMGWYRQAPGKERELVAAISGRGGSTYYADSVKGRFTISRDNAKNTVYLQMNSLKPEDTAVYYCAKYPGISGYNYWGQGTQVTVSS", "polyreactivity (PSR sort gate)": "high polyreactivity"}
{"sequence": "QVQHVESGGGLVQAGGSLRLSCAASGLIFRYYVKGWYRPAPGKERDLDAGITSSGGYTFYAESVKGRFTISRDNAKNTVYLQMNSLKPDDTAVYYCAARRPYAYARSSRYDYWGQGTQVSVSS", "polyreactivity (PSR sort gate)": "high polyreactivity"}
{"sequence": "QVQHVESGGGLVQAGGSLRLSCAASGLTFSQNAMGWYRQPQGQERELVAAISSSGTSTYYADSVKGRFSISRDNAKNTVYLQMNSVKPEDTAVYYCNAPPGTFQWQGHSDYWGQGTQVTVSS", "polyreactivity (PSR sort gate)": "low polyreactivity"}
{"sequence": "QVQHVESGGGLVQAGGSLRLSCAASGLTFTAYVMGWYRQAPGKERELVAAIRISGGSTYYADSVKGRFTISRDNAKNTVYLQMKSLQPADTAVYYCATRHRHVTATDSRIGDYWGQGTQVTVSS", "polyreactivity (PSR sort gate)": "low polyreactivity"}
{"sequence": "QVQHVESGGGLVQAGGSLRLSCAASGLTFYRYAMGWNRQAPGKERELVAAITSGGSTYYADSVKGRFTISRDNAKNTVYLQMNSLKPEDTAVYYCARQYGYQPERYGYWGQGTQVTVSS", "polyreactivity (PSR sort gate)": "low polyreactivity"}
{"sequence": "QVQHVESGGGLVQAGGSLRLSCAASGNIFAVYAKGWYRQAPGKERELVAAITTGTNTYADSVKGRFTISRDNAKNTVYLQMNSLKPEDTAVYYCAARYYRPLDYWGQGTQLTVSS", "polyreactivity (PSR sort gate)": "low polyreactivity"}
{"sequence": "QVQHVESGGGLVQAGGSLRLSCAASGRIFGYYAMGWYRQAPGKERELVAAISRGGSTNYADSVNGRFTISLDNAKNSVYFQMNSLNPEDTAVYYCAADVASARYYHGYNYWGQGTQVTLSS", "polyreactivity (PSR sort gate)": "high polyreactivity"}
{"sequence": "QVQHVESGGGLVQAGGSLRLSCAASGRIFIVNAMGWYRQAPGKERELVAAISYRGGSTYYADSVKGRFTISRDNAKNTVYLQMNSLKPEDTAVYYCAADRYSYLGYPYEYEYWGQGTQVTVSS", "polyreactivity (PSR sort gate)": "low polyreactivity"}
{"sequence": "QVQHVESGGGLVQAGGSLRLSCAASGRIFPRYAMGWYGQTPGKERELVADISRSGGSTYYADSVKGRFTISRDNAKNSVYLQMNSLKPEDTAVYYCAASQYRRVKQGNYWGQGTQVTVSS", "polyreactivity (PSR sort gate)": "high polyreactivity"}
{"sequence": "QVQHVESGGGLVQAGGSLRLSCAASGRIFQHYPMGSYRQAPGKETEFVAAISSSSGSTYADSVKGRFTISRDNAKNTVYLQMNSLNPEDTAVYYCNRDYMPFKFYGGSHDMEYWGQGTQVTVSS", "polyreactivity (PSR sort gate)": "low polyreactivity"}
{"sequence": "QVQHVESGGGLVQAGGSLRLSCAASGRIFSRYAMGWYRQAPGKERELVAAITSGGSTYYADSVKGRFTISRDNAKNTVYLQMNSLKPEDTAVSYCATRYRFGSYHSIYDYWGQGTQVTVSS", "polyreactivity (PSR sort gate)": "high polyreactivity"}
{"sequence": "QVQHVESGGGLVQAGGSLRLSCAASGRIFVPYVMGWYRQAPGKERELVASISDSDTSTYDADSVKGRFTISRDNAKTTVYLQMNSLKPEDTAVYYCNVDYWGKGTQVTVSS", "polyreactivity (PSR sort gate)": "low polyreactivity"}
{"sequence": "QVQHVESGGGLVQAGGSLRLSCAASGRIFVRNAMGWYRQARGKERELVADITNGGSTNYADSVKGRFTISRDNAKNTVYLQMNSLKPEDTAVYYCAVERYRYPFDYWGQGTQVTVSS", "polyreactivity (PSR sort gate)": "low polyreactivity"}
{"sequence": "QVQHVESGGGLVQAGGSLRLSCAASGRIFWYYAMGWYRQAPGKERELVAASTRGGITTYADSVKGRYTISRDNAKNTVYLQMNSLKPEDTAVYYCNAVRWYGRMDYWGQGTQVTVSS", "polyreactivity (PSR sort gate)": "low polyreactivity"}
{"sequence": "QVQHVESGGGLVQAGGSLRLSCAASGRIIWWYAMRRYRQPPGKERELVAVIDDSVGITYFADSVKGRFTISRDNAKNTVYLQMNSLKPVDTAVNYCARNVNAQKVLGGFDSWGKGTQVTVSS", "polyreactivity (PSR sort gate)": "low polyreactivity"}
{"sequence": "QVQHVESGGGLVQAGGSLRLSCAASGRIMARNAMGWYRQAPGKERELVADISYSGGRTYYADSVKGRFTISRDNSKNTVYFQMNRLKQEDTAVYYCADSRSSRTYHDDYWGQGTQVTVSS", "polyreactivity (PSR sort gate)": "high polyreactivity"}
{"sequence": "QVQHVESGGGLVQAGGSLRLSCAASGRIYFAYAMGWSRQAPGKERELVASITSGGSTNYADSVKGRFTISRDNGKNTLYLQMNSLKPEDTAVYYCAARSRFSNLYGRFYYWGQGTQVTVSS", "polyreactivity (PSR sort gate)": "high polyreactivity"}
{"sequence": "QVQHVESGGGLVQAGGSLRLSCAASGRTFAGYAMGWYRQAPGKEWELVSGITRGVITNYADSVKGRFTISRDNAKNTVYLQMNSLKPEDTAVYSCNARTFPVRLYTPRYGYWGQGTQVTVSS", "polyreactivity (PSR sort gate)": "high polyreactivity"}
{"sequence": "QVQHVESGGGLVQAGGSLRLSCAASGRTFDSYAMGWYRQAPGKERELVAAIYADSVKGRFTISRDNAKNTVYLQMNSLKPEDTAVYYCAAETYSGQTYLGEYDYWGQGTQVTVSS", "polyreactivity (PSR sort gate)": "low polyreactivity"}
{"sequence": "QVQHVESGGGLVQAGGSLRLSCAASGRTFDYYAMGWYRQAPGKERELVASIRSSGRTTYADSVKGRFTISRDNAKNTDYLQMNSRKPEDTAVYYCAAQWPGWWGYDYWGQGTQVTVSS", "polyreactivity (PSR sort gate)": "low polyreactivity"}
{"sequence": "QVQHVESGGGLVQAGGSLRLSCAASGRTFGGNAMGWYRQAPGKERELVAAISKSGGRTYYADSVKGRFTISRDNAKNTVYLQMNSLKPEDTAVYYCNKVLSVSQAGGFDYWGQGTQVTVSS", "polyreactivity (PSR sort gate)": "high polyreactivity"}
{"sequence": "QVQHVESGGGLVQAGGSLRLSCAASGRTFGINALGWYSQAPGNESELVADISGDGGNTYYADSVKGRFTISRDNAKNTVFLQMNSLKPEDTAVYFCATRYEKFRYDYWGQGTQVTVSS", "polyreactivity (PSR sort gate)": "low polyreactivity"}
{"sequence": "QVQHVESGGGLVQAGGSLRLSCAASGRTFNGYAMGWYRQAPGKERELVAAIRSTTGSTYYADSVKGRFTISRDNAKNTVYLQMNSLKPEETAVYYCAAAYPFYADMDYCGQGTQVTVSS", "polyreactivity (PSR sort gate)": "low polyreactivity"}
{"sequence": "QVQHVESGGGLVQAGGSLRLSCAASGRTFPGNAMGWYRQAPGKERELVAAISSSGGSTHYADSVKGRFTFSRDNAKNTVYLQMNSRKPEDSAVYYCNARSKGYSYRYYYWGQGTQVTVSS", "polyreactivity (PSR sort gate)": "high polyreactivity"}
{"sequence": "QVQHVESGGGLVQAGGSLRLSCAASGRTFTYNAMGWYRQAPGKERELVAAISWNGGRTYYADSVKGRFTISRDNAKNTVYLEMNSLKPEETAVYYCNAVSYNLAAYDYWGQGTQVTVSS", "polyreactivity (PSR sort gate)": "high polyreactivity"}
{"sequence": "QVQHVESGGGLVQAGGSLRLSCAASGSIFASNAMGWYRQPPGKEREFVAAISSSGTRTYSADSVKGRFTISRDNAKNTVYLQLNSLKQEDTAVYYCATRRGYDSVYYFYTLWSYYWGQGTQVTVSS", "polyreactivity (PSR sort gate)": "low polyreactivity"}
{"sequence": "QVQHVESGGGLVQAGGSLRLSCAASGSIFGANAMGWYRQAPGNERQLVAAITSGGSTTYADSVKGRFTISRDNAKNTVYLQMNSLKPDDTAVYYCAADESTPYWPVDNFDYWGQGTQVTVSS", "polyreactivity (PSR sort gate)": "low polyreactivity"}
{"sequence": "QVQHVESGGGLVQAGGSLRLSCAASGSIFGVYDMGWYRQAPGKERELVAAISWRGGSTYYADSVKGRFTISRDNAKNTVYLQMNSVKPEDTAVYYCNALGVAEYDWGQGTQVTVSS", "polyreactivity (PSR sort gate)": "low polyreactivity"}
